Assay [1] addresses T1, 5T4 on the SPR chip (amine-coupled on Biacore; biotinylated on MASS-1) (UniProt Q13641 32-355, limits assumed, biotinylated in the MASS-1 assays).
T1 construct: also called biotinylated 5T4
T1 sequence (looked up): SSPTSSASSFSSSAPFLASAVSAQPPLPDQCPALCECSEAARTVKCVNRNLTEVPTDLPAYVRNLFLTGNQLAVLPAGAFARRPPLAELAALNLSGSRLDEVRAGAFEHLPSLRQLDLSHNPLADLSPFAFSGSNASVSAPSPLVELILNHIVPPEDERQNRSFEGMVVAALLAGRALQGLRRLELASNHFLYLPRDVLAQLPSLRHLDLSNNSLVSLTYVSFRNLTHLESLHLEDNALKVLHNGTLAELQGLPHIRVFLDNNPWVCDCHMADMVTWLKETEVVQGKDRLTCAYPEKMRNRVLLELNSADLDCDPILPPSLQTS
In words: SPR Biacore, 5T4 amine-coupled, mAb injected. As to the method: Binding kinetics of the 5T4-specific mAbs have been studied using two different SPR-based platforms, the Biacore 3000 (GE Healthcare) and the MASS-1 platform (Sierra Sensors). Briefly, 5T4 was captured at the sensor chip surface either via direct amine coupling (Biacore platform) or using a streptavidin coated chip and biotinylated 5T4 (MASS-1 platform). The different 5T4-specific mAbs were then injected over the chip in increasing concentrations and the association and dissociation rates studied in real time. A 1:1 Langmuir model was used for curve fitting.
Background: SPR reads the build-up and loss of mass on a sensor chip optically.

The target of assay [2] is T2, human/mouse 5T4 chimera aa173-420 (human/mouse chimera, UniProt Q13641 32-420).
T2 chain: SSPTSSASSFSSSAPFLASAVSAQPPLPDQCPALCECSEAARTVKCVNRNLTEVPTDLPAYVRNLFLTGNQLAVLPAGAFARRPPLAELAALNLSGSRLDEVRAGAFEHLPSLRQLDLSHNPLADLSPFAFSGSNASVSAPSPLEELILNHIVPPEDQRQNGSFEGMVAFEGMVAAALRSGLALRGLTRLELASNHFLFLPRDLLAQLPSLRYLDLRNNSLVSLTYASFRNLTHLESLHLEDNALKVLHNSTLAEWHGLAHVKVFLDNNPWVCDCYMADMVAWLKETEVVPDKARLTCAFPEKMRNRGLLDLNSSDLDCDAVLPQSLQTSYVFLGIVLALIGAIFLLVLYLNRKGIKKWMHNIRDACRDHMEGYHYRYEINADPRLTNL
Put plainly: flow cytometry, chimera-transfected cells. (A flow cytometer gives signals particle by particle.)

The target in assay [3] is T3, 5T4-Fc (obtained from Peter L. Stern, University of Manchester) (human, UniProt Q13641 32-355).
T3 construct: also called h5T4-Fc; recombinant 5T4; not shown: Fc part not specified
T3 sequence (looked up): T1 sequence (looked up)
In words: dual ELISA: coated 5T4-Fc, detection with CD137-bio. As to the method:
Plates (#655074, Greiner Bio-One GmbH, Germany) were pre-coated with 0.5 μg/ml 5T4-Fc (obtained from Professor Peter Stern, University of Manchester) overnight. CD137-5T4 bsAb were diluted from 8 to 2×10⁻³ μg/ml in 1:4 dilutions and added in duplicates of 50 μl to each well. CD137-bio (Ancell #502-030) was used as detection antibody at 0.5 μg/ml and the binding was detected with Streptavidin-HRP (Pierce #21126). The ELISA was developed with SuperSignal ELISA PICO Chemiluminescent substrate (Thermo Scientific Pierce, Rockford, Ill. USA) during 2-10 minutes and read in an automated microplate based multi-detection reader (FLUOstar OPTIMA, Netherlands).

B1: 1212/1213 (antibody, V domains shown)
VH: EVQLLESGGGLVQPGGSLRLSCAASGFTFSSYAMSWVRQAPGKGLEWVSYISSYGGYTSYADSVKGRFTISRDNSKNTLYLQMNSLRAEDTAVYYCARYHSGVLDYWGQGTLVTVSS
VL: DIQMTQSPSSLSASVGDRVTITCRASQSISSYLNWYQQKPGKAPKLLIYAASSLQSGVPSRFSGSGSGTDFTLTISSLQPEDFATYYCQQYYYHYLLTFGQGTKLEIK
The term Kd denotes the free concentration of one partner at which half of the binding sites on the other are occupied at equilibrium, for simple one-to-one binding. Lower therefore signals a tighter complex. Broadly, the koff is a measure of how fast the partners let go of each other. High values mean fast dissociation, low ones slow dissociation. In assay [1], B1 came in with a Kd of 180 pM and a koff of 0.00081 s⁻¹. Besides, in assay [2], the “normalized % positive cells” value is -0.01.

B2: 1206/1207 (antibody, V domains shown)
VH: EVQLLESGGGLVQPGGSLRLSCAASGFTFSGSSMSWVRQAPGKGLEWVSSIYYSGSGTYYADSVKGRFTISRDNSKNTLYLQMNSLRAEDTAVYYCARYGRNVHPYNLDYWGQGTLVTVSS
VL: DIQMTQSPSSLSASVGDRVTITCRASQSISSYLNWYQQKPGKAPKLLIYAASSLQSGVPSRFSGSGSGTDFTLTISSLQPEDFATYYCQQGYYYLPTFGQGTKLEIK
Consider B2, for which the “normalized % positive cells” value in assay [2] stood at 0.3.

B3: 1626-1208 (bispecific antibody)
chain 1: not shown
chain 2: DIQMTQSPSSLSASVGDRVTITCRASQSISSYLNWYQQKPGKAPKLLIYAASSLQSGVPSRFSGSGSGTDFTLTISSLQPEDFATYYCQQGTGYGPLTFGQGTKLEIKRTVAAPSVFIFPPSDEQLKSGTASVVCLLNNFYPREAKVQWKVDNALQSGNSQESVTEQDSKDSTYSLSSTLTLSKADYEKHKVYACEVTHQGLSSPVTKSFNRGEC
As a reminder, the EC50 is the concentration needed to bring the measured effect to its halfway point. Low values mean greater potency, high ones weaker potency. For B3, the 50% effective concentration (EC50) in assay [3] turned out to be 1910 pM.

B4: 1626-1210 (bispecific antibody)
heavy: not shown
light: B3 chain 2
B4 came in with a half-maximal effective concentration (EC50) in assay [3] of 400 pM.
